Patent publication US20200010567A1 (NEURIMMUNE, published 2020)

How the values were obtained:
[1] = target: T1, BSA-coupled (GA)15 DPR protein peptide (bovine, conjugated via a bifunctional linker (SMCC) to bovine serum albumin); assay: indirect ELISA, BSA-coupled peptide coated, antibody titrated [also D00013 FIG. 3E]
T1 construct: also called BSA-(GA)15
Method: (§1) In brief, dipeptide repeat proteins were synthesized and purified by Schafer-N(Copenhagen, Denmark): (GA)₁₅: H-CHHHHHH(GA)₁₅-OH; (GP)₁₅: H-C(GP)₁₅-OH; (GR)₁₅: H-C(GR)₁₅-OH; (PA)₁₅: H-C(PA)₁₅-OH; (PR)₁₅: H—C(PR)₁₅-OH. DPR protein peptides were then conjugated via a bifunctional linker (SMCC) to bovine serum albumin (BSA). 96-well microplates (Corning Incorporated, Corning, USA) were coated with BSA-coupled or -uncoupled dipeptide repeat protein peptides at a concentration of either 5 μg/ml or 20 μg/ml in coating buffer (15 mM Na₂CO₃, 35 mM NaHCO₃, pH 9.42). Non-specific binding sites were blocked for 1 h at room temperature with PBS/0.1% Tween®-20 containing 2% BSA (Sigma-Aldrich, Buchs, Switzerland). Primary antibodies were diluted to the indicated concentrations and incubated 1 h at room temperature, followed by incubation with a donkey anti-human IgG Fcγ-specific antibody conjugated with HRP (Jackson ImmunoResearch Laboratories, Inc., West Grove, USA). Binding was determined by measurement of HRP activity in a standard colorimetric assay. EC₅₀ values were estimated by non-linear regression using GraphPad Prism software (San Diego, USA).

[2] = target: T2, BSA-coupled (GP)15 DPR protein peptide (bovine, conjugated via a bifunctional linker (SMCC) to bovine serum albumin); assay: indirect ELISA, BSA-coupled peptide coated, antibody titrated [also D00014 FIG. 3G]
T2 construct: also called BSA-(GP)15
T2 sequence (peptide, as listed by the source limits assumed, chain 1 of 2): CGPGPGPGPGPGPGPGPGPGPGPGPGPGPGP
T2 sequence (P02769 25-607 limits assumed, chain 2 of 2): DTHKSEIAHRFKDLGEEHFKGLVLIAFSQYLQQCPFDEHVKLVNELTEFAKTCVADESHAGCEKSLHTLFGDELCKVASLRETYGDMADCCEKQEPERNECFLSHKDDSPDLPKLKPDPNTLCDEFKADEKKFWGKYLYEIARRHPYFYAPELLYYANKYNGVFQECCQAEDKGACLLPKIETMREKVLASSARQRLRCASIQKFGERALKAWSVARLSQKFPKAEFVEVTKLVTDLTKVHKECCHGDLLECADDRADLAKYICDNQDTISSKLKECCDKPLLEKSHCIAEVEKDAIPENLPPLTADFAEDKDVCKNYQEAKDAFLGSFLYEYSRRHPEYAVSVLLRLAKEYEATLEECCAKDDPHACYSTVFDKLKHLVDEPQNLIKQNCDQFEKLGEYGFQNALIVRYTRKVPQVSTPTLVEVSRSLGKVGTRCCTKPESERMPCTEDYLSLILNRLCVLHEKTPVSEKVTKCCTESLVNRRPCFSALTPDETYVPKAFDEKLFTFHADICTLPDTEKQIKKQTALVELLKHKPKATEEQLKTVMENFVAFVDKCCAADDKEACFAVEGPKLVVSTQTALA
Method: as §1

[3] = target: T3, (GA)15: H-CHHHHHH(GA)15-OH; assay: indirect ELISA, uncoupled peptide coated, antibody titrated [also D00012 FIG. 3B]
T3 construct: synthetic, not coupled to BSA; also called poly-GA DPR protein peptide
T3 peptide: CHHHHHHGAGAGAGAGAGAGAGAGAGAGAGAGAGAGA
Method: as §1

[4] = target: T4, (PA)15: H-C(PA)15-OH; assay: indirect ELISA, uncoupled peptide coated, antibody titrated [also D00015 FIG. 3K]
T4 construct: synthetic, not coupled to BSA; also called poly-PA DPR protein peptide
T4 peptide: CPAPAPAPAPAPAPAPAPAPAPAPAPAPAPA
Method: as §1

[5] = target: T5, BSA-coupled (PR)15 DPR protein peptide (bovine, conjugated via a bifunctional linker (SMCC) to bovine serum albumin); assay: indirect ELISA, BSA-coupled peptide coated, antibody titrated [also D00013 FIG. 3F]
T5 construct: also called BSA-(PR)15
T5 sequence (peptide, as listed by the source limits assumed, chain 1 of 2): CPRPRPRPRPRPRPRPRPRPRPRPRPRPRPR
T5 sequence (P02769 25-607 limits assumed, chain 2 of 2): as the sequence (P02769 25-607 limits assumed, chain 2 of 2) above
Method: as §1

[6] = target: T6, PR4: H-(PR)4HHHHHH-NH2; assay: indirect ELISA, His-tagged peptide coated at 50 ug/ml, antibody titrated [also D00027 FIG. 7O]
T6 peptide: H-PRPRPRPRHHHHHH-NH2
Method: as §1, with “96-well” for “In brief, dipeptide repeat proteins were synthesized and purified by Schafer-N(Copenhagen, Denmark): (GA)₁₅: H-CHHHHHH(GA)₁₅-OH; (GP)₁₅: H-C(GP)₁₅-OH; (GR)₁₅: H-C(GR)₁₅-OH; (PA)₁₅: H-C(PA)₁₅-OH; (PR)₁₅: H—C(PR)₁₅-OH. DPR protein peptides were then conjugated via a bifunctional linker (SMCC) to bovine serum albumin (BSA). 96-well”, “with” for “with BSA-coupled or -uncoupled”, “50” for “either 5 μg/ml or 20”
(§2) High affinity binding was detected for poly-GA DPRs harboring 10 or 20 (GA)-repeats, reflected in an EC₅₀ in the subnanomolar or low nanomolar range (FIGS. 7A, 7C-7I).

[7] = target: T7, PR3: H-(PR)3HHHHHH-NH2; assay: as above
T7 peptide: H-PRPRPRHHHHHH-NH2
Method: as §1, with “96-well” for “In brief, dipeptide repeat proteins were synthesized and purified by Schafer-N(Copenhagen, Denmark): (GA)₁₅: H-CHHHHHH(GA)₁₅-OH; (GP)₁₅: H-C(GP)₁₅-OH; (GR)₁₅: H-C(GR)₁₅-OH; (PA)₁₅: H-C(PA)₁₅-OH; (PR)₁₅: H—C(PR)₁₅-OH. DPR protein peptides were then conjugated via a bifunctional linker (SMCC) to bovine serum albumin (BSA). 96-well”, “with” for “with BSA-coupled or -uncoupled”, “50” for “either 5 μg/ml or 20”
as §2

[8] = target: T8, PR5: H-(PR)5HHHHHH-NH2; assay: as above
T8 peptide: H-PRPRPRPRPRHHHHHH-NH2
Method: as §1, with “96-well” for “In brief, dipeptide repeat proteins were synthesized and purified by Schafer-N(Copenhagen, Denmark): (GA)₁₅: H-CHHHHHH(GA)₁₅-OH; (GP)₁₅: H-C(GP)₁₅-OH; (GR)₁₅: H-C(GR)₁₅-OH; (PA)₁₅: H-C(PA)₁₅-OH; (PR)₁₅: H—C(PR)₁₅-OH. DPR protein peptides were then conjugated via a bifunctional linker (SMCC) to bovine serum albumin (BSA). 96-well”, “with” for “with BSA-coupled or -uncoupled”, “50” for “either 5 μg/ml or 20”
as §2

[9] = target: T9, PR2: H-(PR)2HHHHHH-NH2; assay: as above
T9 peptide: H-PRPRHHHHHH-NH2
Method: as §1, with “96-well” for “In brief, dipeptide repeat proteins were synthesized and purified by Schafer-N(Copenhagen, Denmark): (GA)₁₅: H-CHHHHHH(GA)₁₅-OH; (GP)₁₅: H-C(GP)₁₅-OH; (GR)₁₅: H-C(GR)₁₅-OH; (PA)₁₅: H-C(PA)₁₅-OH; (PR)₁₅: H—C(PR)₁₅-OH. DPR protein peptides were then conjugated via a bifunctional linker (SMCC) to bovine serum albumin (BSA). 96-well”, “with” for “with BSA-coupled or -uncoupled”, “50” for “either 5 μg/ml or 20”
as §2

[10] = target: T10, GA4: H-(GA)4HHHHHH-NH2; assay: indirect ELISA, His-tagged peptide coated at 50 ug/ml, antibody titrated [also D00025 FIG. 7H]
T10 peptide: H-GAGAGAGAHHHHHH-NH2
Method: as §1, with “96-well” for “In brief, dipeptide repeat proteins were synthesized and purified by Schafer-N(Copenhagen, Denmark): (GA)₁₅: H-CHHHHHH(GA)₁₅-OH; (GP)₁₅: H-C(GP)₁₅-OH; (GR)₁₅: H-C(GR)₁₅-OH; (PA)₁₅: H-C(PA)₁₅-OH; (PR)₁₅: H—C(PR)₁₅-OH. DPR protein peptides were then conjugated via a bifunctional linker (SMCC) to bovine serum albumin (BSA). 96-well”, “with” for “with BSA-coupled or -uncoupled”, “50” for “either 5 μg/ml or 20”
as §2

[11] = target: T11, GA2: H-(GA)2HHHHHH-NH2; assay: as above
T11 peptide: H-GAGAHHHHHH-NH2
Method: as §1, with “96-well” for “In brief, dipeptide repeat proteins were synthesized and purified by Schafer-N(Copenhagen, Denmark): (GA)₁₅: H-CHHHHHH(GA)₁₅-OH; (GP)₁₅: H-C(GP)₁₅-OH; (GR)₁₅: H-C(GR)₁₅-OH; (PA)₁₅: H-C(PA)₁₅-OH; (PR)₁₅: H—C(PR)₁₅-OH. DPR protein peptides were then conjugated via a bifunctional linker (SMCC) to bovine serum albumin (BSA). 96-well”, “with” for “with BSA-coupled or -uncoupled”, “50” for “either 5 μg/ml or 20”
as §2

[12] = target: T12, GA3: H-(GA)3HHHHHH-NH2; assay: as above
T12 peptide: H-GAGAGAHHHHHH-NH2
Method: as §1, with “96-well” for “In brief, dipeptide repeat proteins were synthesized and purified by Schafer-N(Copenhagen, Denmark): (GA)₁₅: H-CHHHHHH(GA)₁₅-OH; (GP)₁₅: H-C(GP)₁₅-OH; (GR)₁₅: H-C(GR)₁₅-OH; (PA)₁₅: H-C(PA)₁₅-OH; (PR)₁₅: H—C(PR)₁₅-OH. DPR protein peptides were then conjugated via a bifunctional linker (SMCC) to bovine serum albumin (BSA). 96-well”, “with” for “with BSA-coupled or -uncoupled”, “50” for “either 5 μg/ml or 20”
as §2

T1 sequence (P02769 25-607 limits assumed): as the sequence (P02769 25-607 limits assumed, chain 2 of 2) above

B1: NI-308.45C2 (antibody, V domains shown)
VH: QLQLQESGPGLVKPSQILSLTCAISGDSVFSNSAAWNWIRQSPSRGLEWLGRTYYRSKWDNDYAPSVKSRISINPDTSKNQFSLQLNSVTPEDTAVYYCAREVAYCGGDCYSVSFDYWGQGTLVTVSS
VL: not shown
notes: Recombinant complete human IgG1, kappa
[1]
  EC50: 15200 pM

B2: NI-308.5G2 (antibody, V domains shown)
VH: EVQLVQSGADLRNPGASVTVSCTASGYHFADNAINWLRQAPGQRLEWMGWINIYSGNTKYSQNFQGRVTFTRNTSASTAFMHLRSLRSEDTAVYFCARDPDSSGYYLPYFDYWGQGTLVTVSS
VL: DIQLTQSPDSLTLSLGERATINCKSSQSVFYNSNNKNYLAWYQQKPGQPPKLLMYWASTRESGVTDRFSGSGSGTDFTLTITNLQAEDVAVYYCQQFYSSPLTFGGGTKVEIK
notes: as for B1
[2]
  EC50: 210 pM

B3: NI-308.18F7 (antibody, V domains shown)
VH: QVQLQESGPGLVKPSETLSVTCTVSGGSINDYYWNWIRQPAGKGLEWIGRIYASGTINYNPSLQSRVTMSIDTSKNQFSLDLISVSAADTAVYYCARWGQVVGDYYYGMDVWGQGTTVTVSS
VL: EIVLTQSPLSLSVTPGEPASISCKSSQSLQHTNGYNYLDWYLLKPGQSPQLLIFLTSNRASGVPDRFSGSGSGTNFTLKISRVEAEDVGVYYCMEGIQLWTFGQGTKLEIK
notes: as for B1
[3]
  EC50: 340 pM

B4: NI-308.4M1 (antibody, V domains shown)
VH: EVQLVETGGGVVQPGGSLRLSCEASGFTIGTYAMHWVRQFPGKGLDWVAVISFDGTTEYYTDAVKGRFTISRDNAKNTLYLQMNYLRGDDTAIYFCARDFTSSGETGSWTQVPDLWGQGTLVTVSS
VL: CEIVMTQSPATLSLSPGERATLSCRASQSVTKYLAWYQQKPGQAPRLLIYDVSYRAAGTPARFSGSGSGTDFTLTISSLEPEDFAVYYCHQRSSWPPVTFGGGTKVEIK
notes: as for B1
[4]
  EC50: 100 pM

B5: NI-308.24E11 (antibody, V domains shown)
VH: QVQLQESGPGLVKPSETLSLTCTVSTTSLRSYFWSWIRQPPGKGLEWIGYVYYSGSTIYNPSLKNRVTISIDTSKNQFSLNLRSVTAADTAMYFCARGVPAETDARDFPPYYFDHWGQGTLVTVSS
VL: CDIQLTQSPSSLSASVGNRITFTCQASQDIRYYLNWYQQKPGKAPKLLIYDVSNLDTGVPPRFSGSGSGTNFTFTISSLQPEDIAVYYCQQYEGLPVTFGGGTKVEIK
notes: as for B1
[5]
  EC50: > 200000 pM
[6]
  binding result: no binding (tested: about 4x10^5 pM (last point))
[7]
  binding result: no binding (tested: about 4x10^5 pM (last point))
[8]
  binding result: no binding (tested: about 4x10^5 pM (last point))
[9]
  binding result: no binding (tested: about 4x10^5 pM (last point))

B6: NI-308.28G1 (antibody, V domains shown)
VH: QVQLQESGPRLVKPSETLSLTCTVAGGSVNSYYWTWIQQSPGKGLEWLGRIYIAGRTNYNPSLTSRIALSVDTSRNQLSLKLTSVTAADTAIYYCARWGAESGDYYYGVDVWGPGTLVTVSS
VL: EIVMTQSPLSLPVTPGEPASISCKSSEGLLHSNGYTYLDWYLQKPGQAPQLLIFLASNRAAGVPDRFSGSGSGTDFTLKISRVEAEDVGVYYCMQAIQSPWTFGPGTKVEIK
notes: as for B1
[10]
  binding result: no binding (tested: about 4x10^5 pM (last point))
[11]
  binding result: no binding (tested: about 4x10^5 pM (last point))
[12]
  binding result: no binding (tested: about 4x10^5 pM (last point))
